One test deals with α2β1 integrin (Homo sapiens, UniProt P05556+P17301). Nature of the test: adhesion of AJH10 blocked MV3 cells to immobilized collagen IV. The test is classed as cell-based. Set-up: endogenous in cells; host or cells: MV3 human melanoma cells. The note with it: adhesion via α2β1. The method, then: The α1β1 integrin specific inhibitory effect of obtustatin was confirmed using human melanoma MV3 cells. MV3 cells express both the α1β1 and α2β1 integrins. MV3 cells adhere strongly to collagen IV through α1β1 and α2β1 integrin-mediated interactions.
Collagen IV (0.2 μg/well) in 0.02 M acetic acid was immobilized overnight at 4° C. on a 96-well plate. Plates were then blocked with 1% (w/v) BSA (bovine serum albumin) in Hank's Balanced Salt Solution (HBSS) containing 3 mM Mg^2+ at room temperature for 1-2 hours to prevent cells from non-specifically binding to the plates. α1K562 cells were labeled by incubation with 12.5 μM 5-chloromethylfluorescein diacetete (CMFDA) in HBSS for 15 minutes at 37° C. CMFDA labeled MV3 cells were then pelleted, washed and resuspended in HBSS buffer containing 3mM Mg^2+ and 1% (w/v) BSA. 1×10^5 cells were then added to each well in the presence (10 μg/ml) or absence of the α1 integrin subunit specific AJH10 mAb and α2 integrin subunit specific P1E6 mAb as indicated in FIG. 5. Obtustatin was added at the concentrations indicated in FIG. 5 simultaneously with the mAbs. The plates were then incubated at 37° C. for 30 minutes and washed three times with HBSS containing 3 mM Mg^2+ and 1% (w/v) BSA to remove unbound cells. […] Fluorescent CMFDA released by lysis of adherent cells in a given well was read using a Cytofluor 2350 fluorescence plate reader.

The target of test [1] is T1, α1β1 integrin (Homo sapiens, UniProt P05556+P56199).
T1 construct: expressed in transfected cells; host or cells: α1K562 cells
Description: adhesion of α1K562 cells to immobilized collagen IV. It is filed as cell-based. The note with it: α1K562 cells, α1β1, collagen IV. The method, then: Collagen IV (0.2 μg/well) in 0.02 M acetic acid was immobilized by incubation overnight at 4° C. on a 96-well plate. Plates were then blocked with 1% (w/v) BSA (bovine serum albumin) in Hank's Balanced Salt Solution (HBSS) containing 3 mM Mg^2+ at room temperature for 1-2 hours to prevent cells from non-specifically binding to the plates. α1K562 cells were labeled by incubation with 12.5 μM 5-chloromethylfluorescein diacetete (CMFDA) in HBSS for 15 minutes at 37° C. CMFDA labeled α1K562 cells were then pelleted, washed and resuspended in HBSS buffer containing 3 mM Mg^2+ and 1% BSA. […] The plates were washed three times with HBSS containing 3 mM Mg^2+ and 1% (w/v) BSA to remove unbound cells. Bound cells were lysed using 0.5% (v/v) Triton X-100 in H2O. Fluorescent CMFDA released by lysis of adherent cells in a given well was read using a Cytofluor 2350 fluorescence plate reader.
(§1) Adhesive ligands for the selected integrins consisted of collagen IV (0.2 μg/well), collagen I, fibronectin, or vascular cell adhesion molecule-1 (VCAM-1). Adhesive ligands in 0.02 M acetic acid were immobilized overnight at 4° C. on a 96-well plate. Plates were then blocked with 1% (w/v) BSA (bovine serum albumin) in Hank's Balanced Salt Solution (HBSS) containing 3 mM Mg^2+ at room temperature for 1-2 hours to prevent cells from non-specifically binding to the plates. α1K562, α2K562, K562, A5, and Jurkat cells expressing the α1β1, α2β1, α5β1, αIIbβ3, and α4β1 integrins respectively were labeled by incubation with 12.5 μM 5-chloromethylfluorescein diacetate (CMFDA) in HBSS for 15 minutes at 37° C. CMFDA labeled cells were then pelleted, washed and resuspended in HBSS buffer containing 3 mM Mg^2+ and 1% (w/v) BSA. […] Plates were then incubated at 37° C. for 30 minutes as indicated in Table 5 and washed three times with HBSS containing 3 mM Mg^2+ and 1% (w/v) BSA to remove unbound cells. Bound cells were lysed using 0.5% (v/v) Triton X-100 in H2O. Fluorescent CMFDA released by lysis of adherent cells in a given well was read using a Cytofluor 2350 fluorescence plate reader.
(§2) The effect of obtustatin, viperisrastatin, echistatin, and eristostatin on the binding of selected integrins to their adhesive ligands was evaluated using the cell adhesion assay described in Example 6. The integrin-expressing cells, integrins and corresponding adhesive ligands, and the results of the cell adhesion assay are shown in Table 6.

In a further test the target is T2, α9β1 integrin (Homo sapiens, UniProt P05556+Q13797).
T2 construct: expressed in transfected cells; host or cells: SW480α9 cells
Description: adhesion of SW480α9 cells to VCAM-1. To be noted: α9β1, VCAM-1. It is filed as cell-based.

Test [2] concerns the target T1, α1β1 integrin. Description: adhesion of α1K562 cells to collagen I. The test is classed as cell-based. The note with it: α1β1, Coll I. The method, then:
as §1, §2

The subject of another test is melanoma cells (HS.939T). Nature of the test: BrdU incorporation growth assay in HS.939T melanoma cells. It is filed as cell-based, human. The note with it: 2 μM. Here is the method: Human microvascular endothelial cells (HMVECs) and melanoma cells (HS.939T) were cultured and treated with vehicle (control), 2 μM obtustatin, 2 μM echistatin or 50 ng/ml TNF-α. Growth of the cells was determined by a standard BrdU incorporation assay (Chemicon), according to the manufacturer's instructions.

The next test concerns the target T3, α4β1 integrin (Homo sapiens, UniProt P05556+P13612).
T3 construct: endogenous in cells; host or cells: Jurkat cells
Description: adhesion of Jurkat cells to VCAM-1. It is filed as cell-based. To be noted: α4β1, VCAM-1. The method, then: as §1, §2

For another test, the target named is T4, αvβ3 integrin (Homo sapiens, UniProt P05106+P06756).
T4 construct: endogenous in cells; host or cells: JY cells
Description: adhesion of JY cells to vitronectin. It is filed as cell-based. To be noted: αvβ3, VN.

In test [3] the test system is dermal microvascular endothelial cells (EC). Nature of the test: apoptosis by caspase-3 levels in dermal microvascular endothelial cells. The test is classed as cell-based. Here is the method:
The mechanisms of the cancer-suppressing effect observed for obtustatin were investigated as follows. Dermal microvascular endothelial cells (EC) and human melanoma cells (MV3) were cultured and exposed to TNF-α, vincristine and obtustatin. (TNF-α and vincristine are compounds which induce cell death by apoptosis in both normal and cancerous cells.) Control cells received only vehicle. The extent of apoptosis was measured by determining caspase-3 levels.

In test [4] the target is T1, α1β1 integrin. Nature of the test: adhesion of HS.939T cells to collagen IV. The test is classed as cell-based. To be noted: α1β1, Coll IV.

T1 sequence (P56199 29-1179): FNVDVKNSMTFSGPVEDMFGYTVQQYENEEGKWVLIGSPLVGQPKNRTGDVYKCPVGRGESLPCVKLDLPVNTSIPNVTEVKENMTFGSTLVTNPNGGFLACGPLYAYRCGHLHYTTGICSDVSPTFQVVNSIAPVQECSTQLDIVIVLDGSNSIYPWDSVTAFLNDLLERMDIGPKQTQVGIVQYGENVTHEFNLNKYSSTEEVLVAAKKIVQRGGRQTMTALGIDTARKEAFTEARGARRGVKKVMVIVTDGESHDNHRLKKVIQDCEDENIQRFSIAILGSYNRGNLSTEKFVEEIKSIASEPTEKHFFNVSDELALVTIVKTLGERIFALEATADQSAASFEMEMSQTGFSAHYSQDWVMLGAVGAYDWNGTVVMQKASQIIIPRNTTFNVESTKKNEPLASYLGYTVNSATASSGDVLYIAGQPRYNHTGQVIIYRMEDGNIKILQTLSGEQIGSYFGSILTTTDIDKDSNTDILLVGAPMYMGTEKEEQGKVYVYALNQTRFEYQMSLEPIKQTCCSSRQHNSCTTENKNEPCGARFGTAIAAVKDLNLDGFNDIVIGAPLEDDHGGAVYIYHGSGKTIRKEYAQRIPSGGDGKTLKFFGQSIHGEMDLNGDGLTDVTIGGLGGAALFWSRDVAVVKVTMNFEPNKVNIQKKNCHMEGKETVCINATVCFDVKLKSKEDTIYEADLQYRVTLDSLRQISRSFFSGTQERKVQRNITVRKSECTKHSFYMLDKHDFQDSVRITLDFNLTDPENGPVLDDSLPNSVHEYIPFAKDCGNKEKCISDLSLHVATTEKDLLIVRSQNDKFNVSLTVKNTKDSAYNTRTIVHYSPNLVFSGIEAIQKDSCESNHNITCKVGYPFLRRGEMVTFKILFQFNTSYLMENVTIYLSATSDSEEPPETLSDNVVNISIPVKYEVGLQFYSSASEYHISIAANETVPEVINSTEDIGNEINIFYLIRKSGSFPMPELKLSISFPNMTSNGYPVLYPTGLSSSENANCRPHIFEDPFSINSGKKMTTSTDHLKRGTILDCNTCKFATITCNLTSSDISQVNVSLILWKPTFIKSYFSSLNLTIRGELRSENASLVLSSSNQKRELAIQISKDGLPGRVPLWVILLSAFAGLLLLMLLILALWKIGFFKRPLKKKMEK
T1 sequence (P05556 21-798): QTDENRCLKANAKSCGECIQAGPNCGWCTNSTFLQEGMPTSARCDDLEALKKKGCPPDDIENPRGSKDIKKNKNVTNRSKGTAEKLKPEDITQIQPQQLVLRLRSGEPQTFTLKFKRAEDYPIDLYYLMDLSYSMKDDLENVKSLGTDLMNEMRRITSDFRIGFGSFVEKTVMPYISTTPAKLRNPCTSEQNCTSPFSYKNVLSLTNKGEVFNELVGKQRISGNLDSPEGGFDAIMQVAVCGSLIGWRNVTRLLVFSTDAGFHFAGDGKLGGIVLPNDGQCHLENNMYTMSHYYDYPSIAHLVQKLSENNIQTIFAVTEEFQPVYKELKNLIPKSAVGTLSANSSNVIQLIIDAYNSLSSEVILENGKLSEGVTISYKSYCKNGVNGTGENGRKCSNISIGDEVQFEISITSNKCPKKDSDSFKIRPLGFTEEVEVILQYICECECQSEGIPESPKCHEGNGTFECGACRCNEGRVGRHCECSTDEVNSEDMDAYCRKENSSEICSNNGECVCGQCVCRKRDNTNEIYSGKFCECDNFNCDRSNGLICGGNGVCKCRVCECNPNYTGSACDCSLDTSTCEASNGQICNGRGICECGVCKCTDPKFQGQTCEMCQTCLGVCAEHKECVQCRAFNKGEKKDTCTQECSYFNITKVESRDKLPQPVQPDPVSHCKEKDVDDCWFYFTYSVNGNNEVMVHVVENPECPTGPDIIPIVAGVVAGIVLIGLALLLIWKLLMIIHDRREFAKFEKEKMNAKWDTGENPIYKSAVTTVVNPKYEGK
T4 sequence (P06756 31-889 limits assumed): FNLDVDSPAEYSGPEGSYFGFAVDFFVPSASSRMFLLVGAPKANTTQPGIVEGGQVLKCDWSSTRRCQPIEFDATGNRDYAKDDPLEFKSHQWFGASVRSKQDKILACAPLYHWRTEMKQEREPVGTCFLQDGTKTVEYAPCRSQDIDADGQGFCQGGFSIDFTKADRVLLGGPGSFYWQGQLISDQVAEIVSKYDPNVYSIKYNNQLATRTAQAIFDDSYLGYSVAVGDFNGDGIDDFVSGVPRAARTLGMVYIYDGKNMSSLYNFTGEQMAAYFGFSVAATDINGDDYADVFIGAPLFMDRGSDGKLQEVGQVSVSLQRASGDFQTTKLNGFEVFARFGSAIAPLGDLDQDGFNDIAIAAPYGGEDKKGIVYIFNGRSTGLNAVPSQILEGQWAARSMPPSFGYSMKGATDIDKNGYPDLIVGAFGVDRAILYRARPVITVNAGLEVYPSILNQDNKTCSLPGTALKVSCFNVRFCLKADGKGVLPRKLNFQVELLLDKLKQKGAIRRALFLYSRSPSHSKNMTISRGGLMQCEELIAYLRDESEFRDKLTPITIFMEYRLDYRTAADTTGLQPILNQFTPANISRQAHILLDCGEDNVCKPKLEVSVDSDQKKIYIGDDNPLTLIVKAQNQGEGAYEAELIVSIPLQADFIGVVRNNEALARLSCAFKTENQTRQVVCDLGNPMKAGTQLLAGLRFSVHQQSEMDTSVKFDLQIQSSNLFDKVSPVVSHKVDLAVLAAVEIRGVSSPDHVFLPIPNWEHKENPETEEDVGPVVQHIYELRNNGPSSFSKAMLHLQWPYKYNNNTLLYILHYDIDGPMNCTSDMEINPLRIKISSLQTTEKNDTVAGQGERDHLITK
T4 sequence (P06756 891-1048 partner limits assumed): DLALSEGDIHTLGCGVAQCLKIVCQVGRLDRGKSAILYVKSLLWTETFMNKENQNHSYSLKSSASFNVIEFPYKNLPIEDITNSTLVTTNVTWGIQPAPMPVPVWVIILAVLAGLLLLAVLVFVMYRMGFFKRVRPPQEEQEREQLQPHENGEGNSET
T4 sequence (P05106 27-788): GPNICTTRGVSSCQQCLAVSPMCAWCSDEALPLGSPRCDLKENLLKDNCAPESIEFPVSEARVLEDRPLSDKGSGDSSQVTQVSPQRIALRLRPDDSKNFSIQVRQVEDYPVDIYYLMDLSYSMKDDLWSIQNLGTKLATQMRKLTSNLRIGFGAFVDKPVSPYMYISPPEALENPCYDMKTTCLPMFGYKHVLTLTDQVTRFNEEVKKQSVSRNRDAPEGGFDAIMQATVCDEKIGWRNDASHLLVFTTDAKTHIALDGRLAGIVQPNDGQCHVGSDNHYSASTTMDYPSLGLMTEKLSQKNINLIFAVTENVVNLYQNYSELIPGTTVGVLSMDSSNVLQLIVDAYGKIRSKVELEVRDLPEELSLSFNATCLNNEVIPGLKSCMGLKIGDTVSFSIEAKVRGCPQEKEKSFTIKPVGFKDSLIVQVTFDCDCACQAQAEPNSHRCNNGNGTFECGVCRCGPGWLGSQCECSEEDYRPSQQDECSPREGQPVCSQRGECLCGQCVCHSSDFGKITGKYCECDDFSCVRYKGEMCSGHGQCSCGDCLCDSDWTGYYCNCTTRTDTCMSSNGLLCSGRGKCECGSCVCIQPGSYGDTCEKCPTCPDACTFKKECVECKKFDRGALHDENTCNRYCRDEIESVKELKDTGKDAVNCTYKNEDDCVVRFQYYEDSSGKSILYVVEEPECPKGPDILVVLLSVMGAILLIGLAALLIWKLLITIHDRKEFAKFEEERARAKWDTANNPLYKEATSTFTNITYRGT
T2 sequence (Q13797 30-1035): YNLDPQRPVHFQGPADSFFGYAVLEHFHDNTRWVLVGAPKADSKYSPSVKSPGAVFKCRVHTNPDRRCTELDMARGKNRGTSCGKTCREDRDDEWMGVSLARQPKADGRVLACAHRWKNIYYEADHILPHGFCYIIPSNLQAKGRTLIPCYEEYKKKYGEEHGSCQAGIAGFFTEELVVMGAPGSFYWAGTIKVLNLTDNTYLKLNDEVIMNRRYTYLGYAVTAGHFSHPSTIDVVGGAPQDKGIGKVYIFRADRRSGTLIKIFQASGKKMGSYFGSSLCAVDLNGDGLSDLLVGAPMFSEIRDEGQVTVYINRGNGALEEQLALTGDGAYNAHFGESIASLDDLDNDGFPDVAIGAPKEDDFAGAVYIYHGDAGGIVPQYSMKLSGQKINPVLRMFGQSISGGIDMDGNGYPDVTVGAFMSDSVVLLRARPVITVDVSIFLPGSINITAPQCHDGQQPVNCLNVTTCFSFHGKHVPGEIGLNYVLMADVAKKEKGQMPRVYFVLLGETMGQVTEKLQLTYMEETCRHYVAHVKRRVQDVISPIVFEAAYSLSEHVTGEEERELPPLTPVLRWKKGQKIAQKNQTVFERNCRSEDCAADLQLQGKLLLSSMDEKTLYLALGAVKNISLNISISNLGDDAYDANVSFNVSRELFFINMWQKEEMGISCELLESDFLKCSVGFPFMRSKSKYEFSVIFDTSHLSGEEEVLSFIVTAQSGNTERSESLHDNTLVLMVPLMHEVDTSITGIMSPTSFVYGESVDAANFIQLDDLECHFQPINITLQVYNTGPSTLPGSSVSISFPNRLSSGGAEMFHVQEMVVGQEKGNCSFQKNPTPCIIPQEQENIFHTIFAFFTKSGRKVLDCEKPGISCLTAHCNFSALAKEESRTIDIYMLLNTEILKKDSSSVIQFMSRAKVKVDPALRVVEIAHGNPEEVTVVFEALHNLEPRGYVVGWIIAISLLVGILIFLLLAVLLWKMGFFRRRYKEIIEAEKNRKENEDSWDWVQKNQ
T2 sequence (P05556 21-798): as the sequence (P05556 21-798) above

Consider “Obtustatin (CTTGPCCRQCKLKPAGTTCWKTSLTSHYCTGKSCDCPLYPG)”, for which the “inhibition of adhesion of MV3 cells to collagen IV” value in the test with α2β1 integrin is reported as “comparatively insensitive”. The IC50 is 2 nM with α1β1 integrin [1]; more than 10000 nM in the test with α9β1 integrin; 0.5 nM with α1β1 integrin [2]; more than 10000 nM with α4β1 integrin; more than 10000 nM with αvβ3 integrin; 0.1 nM with α1β1 integrin [4]. The “growth (BrdU incorporation)” value with melanoma cells (HS.939T) is “not the HS.939T melanoma cells”. Also, the “apoptosis (caspase-3)” value in test [3] is “induced significant apoptosis”.

For the origin of these results see US20030186334A1, “KTS-disintegrins” (Temple University - Of the Commonwealth System of Higher …, priority 2001, published 2003).
